Data as given in patent publication US20240344138A1, “TARGETED THERAPIES IN CANCER” (Feng Biosciences, Inc, priority 2021, published 2024).

Experiments:
Format in all cases: in vivo, human
[1] = tested on: locally advanced or metastatic gastric cancer; assay: First-line clinical trial of chemotherapy, immune checkpoint inhibitor and bavituximab, outcome by TME phenotype
Description: (§1) A clinical trial is run to determine whether locally advanced or metastatic gastric cancer tumor microenvironment phenotypes correlate to clinical responses when patients are treated with chemotherapy, an immune checkpoint inhibitor, and Bavituximab in the first-line setting. The analysis includes samples from 120 patients across 2 treatment arms (60 patients in each arm). Patients are randomized to receive either (i) chemotherapy and an immune checkpoint inhibitor, or (ii) chemotherapy, an immune checkpoint inhibitor, and bavituximab. RNA gene signatures are analyzed from tumor samples acquired before any treatments and TME phenotypes are determined. Patients are followed for clinical response, progression-free survival, and overall survival.
Gastric cancer patients are randomized to receiving a regimen of chemotherapy (i.e. capecitabine, 5-FU, cisplatin etc.) plus an immune checkpoint inhibitor (anti-PD-(L)1—i.e., an inhibitor to PD-1 or PD-L1) therapy, or a regimen of chemotherapy/immune checkpoint inhibitor/Bavituximab. The combination of chemotherapy/immune checkpoint inhibitor/Bavituximab increases overall response rate (ORR), 6 month progression-free survival (PFS) and overall survival (OS) patients with advanced gastric cancer compared to the regimen of chemotherapy/immune checkpoint inhibitor alone as shown in TABLE 23. […] One hundred and twenty (120) patients are enrolled, 60 in each of the treatment groups with equal representation across the 4 stromal phenotypes (15 in each phenotype per treatment group). The correlation between each TME phenotype is tested against clinical outcome data. In immune active (IA) and immune suppressed (IS) patients the use of the regimen of chemotherapy/immune checkpoint inhibitor/Bavituximab confers benefit in comparison to patients classified to angiogenic (A) and immune desert (ID) TME phenotype classes as shown in the TABLE 24.

[2] = tested on: locally advanced or metastatic gastric cancer; assay: First-line clinical trial of chemotherapy, immune checkpoint inhibitor and navicixizumab, outcome by TME phenotype
Description: as §1, with “inhibitor, and Navicixizumab in the” for “inhibitor, and Bavituximab in the”, “immune checkpoint inhibitor or (ii)” for “immune checkpoint inhibitor, or (ii)”, “immune checkpoint inhibitor and Navicixizumab.” for “immune checkpoint inhibitor, and bavituximab.”, “inhibitor and Navicixizumab. RNA gene” for “inhibitor, and bavituximab. RNA gene”
Gastric cancer patients are randomized to receiving a regimen of chemotherapy (e.g., capecitabine, 5-FU, cisplatin etc.) plus an immune checkpoint inhibitor (anti-PD-(L)1—e.g., an inhibitor to PD-1 or PD-L1) therapy, or a regimen of chemotherapy/immune checkpoint inhibitor/Navicixizumab. […] The correlation between each TME phenotype is tested against clinical outcome data. In immune active (IA), immune suppressed (IS) and angiogenic (A) patients the use of the regimen of chemotherapy/immune checkpoint inhibitor/Navicixizumab confers benefit in comparison to patients classified to the immune desert (ID) TME phenotype class as shown in the TABLE 26.

[3] = tested on: platinum-resistant or platinum-sensitive recurrent ovarian cancer; assay: Clinical trial of PARP inhibitor and navicixizumab in PARP naive and PARP resistant cohorts, ORR by TME phenotype; conditions: n = 20 per treatment group
Description: A clinical trial is run to determine whether ovarian cancer tumor microenvironment phenotypes correlate to clinical responses when patients are treated with a PARP inhibitor, and navicixizumab in PARP naïve patients or patients that previously progressed on PARP inhibitor. The analysis includes samples from two different cohorts (one consisting of PARP inhibitor naïve patients and one consisting of PARP resistant patients). 40 patients from each cohort are randomized to 2 different treatment arms (20 patients in each arm). Patients are randomized to receive either a PARP inhibitor in combination with navicixizumab or PARP inhibitor monotherapy (PARP naïve cohort) or PARP inhibitor in combination with navicixizumab or navicixizumab monotherapy (PARP resistant). RNA gene signatures are analyzed from tumor samples acquired before the treatments and TME phenotypes are determined. Patients are followed for clinical response.
Ovarian cancer patients are randomized to receiving a regimen of PARP inhibitor (Olaparib, Rucaparib, Niraparib, etc.) plus navicixizumab, PARP monotherapy (PARP naive) or Navicixizumab monotherapy. The combination of PARP inhibitor/Navicixizumab increases overall response rate in patients with recurrent ovarian cancer compared to navicixizumab alone in both the PARP naive and PARP resistant cohorts as shown in TABLE 35. […] Eighty (80) total patients are enrolled, 20 in each of the treatment groups across the two cohorts with equal representation across the 4 stromal phenotypes (5 in each phenotype per treatment group). The correlation between each TME phenotype is tested against clinical outcome data. In immune suppressed (IS), and angiogenic (A) patients the use of the regimen of PARPi/Navicixizumab confers benefit in comparison to patients classified to immune active (IA) and immune desert (ID) TME phenotype classes as shown in the TABLE 36.

[4] = tested on: locally advanced/metastatic HER2-negative breast cancer; assay: Second-line clinical trial of navicixizumab/chemotherapy or navicixizumab/PARP inhibitor, outcome by TME phenotype; conditions: plus chemotherapy group
Description: A clinical trial is run to determine whether locally advanced/metastatic HER2-negative breast cancer tumor microenvironment phenotypes correlate to clinical responses when patients are treated with a combination of Navicixizumab/chemotherapy or Navicixizumab/PARP inhibitor in the second-line setting. […] Patients receive either Navicixizumab/chemotherapy (BRCA WT and hormone receptor-positive) or Navicixizumab/PARP inhibitor (BRCA mutant or triple-negative for ER/PR/HER2). RNA gene signatures are analyzed from tumor samples acquired before any treatments and TME phenotypes are determined. Patients are followed for clinical response and progression-free survival. […] BRCA WT/hormone receptor-positive/HER2-negative breast cancer patients receive a regimen of Navicixizumab plus chemotherapy (e.g., capecitabine, etc.). BRCA mutant or triple-negative for ER/PR/HER2 breast cancer patients receive a regimen of Navicixizumab plus a PARP inhibitor (e.g., Rucaparib, Olaparib, etc.). […] The correlation between each TME phenotype is tested against clinical outcome data. In biomarker positive tumors, represented by angiogenic (A) and immune suppressed (IS) phenotypes, the use of Navicixizumab combinations confers benefit in comparison to patients classified as biomarker negative, represented by immune active (IA) and immune desert (ID) TME phenotype classes as shown in the TABLE 27 and TABLE 28.

[5] = tested on: castration-resistant metastatic prostate cancer; assay: Third-line clinical trial of navicixizumab/chemotherapy or navicixizumab/PARP inhibitor, outcome by TME phenotype; conditions: plus chemotherapy group
Description: A clinical trial is run to determine whether castration-resistant metastatic prostate cancer tumor microenvironment phenotypes correlate to clinical responses when patients are treated with a combination of Navicixizumab/chemotherapy or Navicixizumab/PARP inhibitor in the third-line setting. […] Patients receive either Navicixizumab/chemotherapy (BRCA WT) or Navicixizumab/PARP inhibitor (BRCA mutant). RNA gene signatures are analyzed from tumor samples acquired before any treatments and TME phenotypes are determined. Patients are followed for clinical response, progression-free survival and overall survival. […] BRCA WT prostate cancer patients receive a regimen of Navicixizumab plus chemotherapy (e.g., docetaxel, cabazitaxel etc.). BRCA mutant prostate cancer patients receive a regimen of Navicixizumab plus a PARP inhibitor (e.g., Rucaparib, Olaparib, etc.). […] The correlation between each TME phenotype is tested against clinical outcome data. In tumors that are biomarker positive, represented by angiogenic (A) and immune suppressed (IS) phenotypes, the use of Navicixizumab combinations confers benefit in comparison to patients classified as biomarker negative, represented by immune active (IA) and immune desert (ID) TME phenotype classes as shown in the TABLE 29 and TABLE 30.

B1: Chemo/Immune Checkpoint Inhibitor/Bavituximab: regimen of chemotherapy, immune checkpoint inhibitor and bavituximab (antibody, chains of the INN, looked up, V domains shown)
VH: EVQLQQSGPELEKPGASVKLSCKASGYSFTGYNMNWVKQSHGKSLEWIGHIDPYYGDTSYNQKFRGKATLTVDKSSSTAYMQLKSLTSEDSAVYYCVKGGYYGHWYFDVWGAGTTVTVSS
VL: DIQMTQSPSSLSASLGERVSLTCRASQDIGSSLNWLQQGPDGTIKRLIYATSSLDSGVPKRFSGSRSGSDYSLTISSLESEDFVDYYCLQYVSSPPTFGAGTKLELK
modifications: with chemotherapy and checkpoint inhibitor
- 6 Month PFS (%) ([1]; A (n = 15)): 46.7%
- ORR (%) ([1]; A (n = 15)): 46.7%
- OS (months) ([1]; A (n = 15)): 8.2 months
- 6 Month PFS (%) ([1]; IA (n = 15)): 80.0%
- ORR (%) ([1]; IA (n = 15)): 73.3%
- OS (months) ([1]; IA (n = 15)): 20.2 months
- 6 Month PFS (%) ([1]; ID (n = 15)): 60.0%
- ORR (%) ([1]; ID (n = 15)): 53.3%
- OS (months) ([1]; ID (n = 15)): 11.8 months
- 6 Month PFS (%) ([1]; IS (n = 15)): 73.3%
- ORR (%) ([1]; IS (n = 15)): 66.7%
- OS (months) ([1]; IS (n = 15)): 19.8 months
- 6 Month PFS (%) ([1]; whole treatment group (n = 60)): 65%
- ORR (%) ([1]; whole treatment group (n = 60)): 60%
- OS (months) ([1]; whole treatment group (n = 60)): 15 months

B2: Chemo/Immune Checkpoint Inhibitor/Navicixizumab: regimen of chemotherapy, immune checkpoint inhibitor and navicixizumab (antibody, chains of the INN, looked up, V domains shown)
VH: QVQLVQSGAEVKKPGASVKISCKASGYSFTAYYIHWVKQAPGQGLEWIGYISNYNRATNYNQKFKGRVTFTTDTSTSTAYMELRSLRSDDTAVYYCARDYDYDVGMDYWGQGTLVTVSS
VL: DIVMTQSPDSLAVSLGERATISCRASESVDNYGISFMKWFQQKPGQPPKLLIYAASNQGSGVPDRFSGSGSGTDFTLTISSLQAEDVAVYYCQQSKEVPWTFGGGTKVEIK
VH2: QVQLVQSGAEVKKPGASVKVSCKASGYTFTNYWMHWVRQAPGQGLEWMGDINPSNGRTSYKEKFKRRVTLSVDKSSSTAYMELSSLRSEDTAVYFCTIHYDDKYYPLMDYWGQGTLVTVSS
VL2: B2 VL
modifications: with chemotherapy and checkpoint inhibitor
- 6 Month PFS (%) ([2]; A (n = 15)): 66.7%
- ORR (%) ([2]; A (n = 15)): 60.0%
- OS (months) ([2]; A (n = 15)): 15.4 months
- 6 Month PFS (%) ([2]; IA (n = 15)): 73.3%
- ORR (%) ([2]; IA (n = 15)): 66.7%
- OS (months) ([2]; IA (n = 15)): 17.4 months
- 6 Month PFS (%) ([2]; ID (n = 15)): 53.3%
- ORR (%) ([2]; ID (n = 15)): 46.7%
- OS (months) ([2]; ID (n = 15)): 11.5 months
- 6 Month PFS (%) ([2]; IS (n = 15)): 73.3%
- ORR (%) ([2]; IS (n = 15)): 73.3%
- OS (months) ([2]; IS (n = 15)): 19.7 months
- 6 Month PFS (%) ([2]; whole treatment group (n = 60)): 67%
- ORR (%) ([2]; whole treatment group (n = 60)): 63%
- OS (months) ([2]; whole treatment group (n = 60)): 16 months

B3: PARPi/Navicixizumab (antibody, chains of the INN, looked up, V domains shown)
VH: B2 VH
VL: B2 VL
VH2: B2 VH2
VL2: B2 VL
modifications: with PARP inhibitor
- Overall response rate (ORR) ([3]; PARP naiive cohort): 65%
- Overall response rate (ORR) ([3]; PARP resistant cohort): 40%

B4: Navicixizumab plus chemotherapy: navicixizumab plus chemotherapy (e.g., capecitabine in breast; docetaxel, cabazitaxel in prostate) (antibody, chains of the INN, looked up, V domains shown)
VH: B2 VH
VL: B2 VL
VH2: B2 VH2
VL2: B2 VL
modifications: plus chemotherapy
- ORR (%) ([4]; A (n = 15)): 60%
- PFS (months) ([4]; A (n = 15)): 11.5 months
- ORR (%) ([4]; Biomarker Negative (n = 30)): 20%
- PFS (months) ([4]; Biomarker Negative (n = 30)): 5.7 months
- ORR (%) ([4]; Biomarker Positive (n = 30), BRCA WT, hormone receptor-positive): 63.4%
- PFS (months) ([4]; Biomarker Positive (n = 30)): 12.3 months
- ORR (%) ([4]; IA (n = 15)): 26.7%
- PFS (months) ([4]; IA (n = 15)): 6.0 months
- ORR (%) ([4]; ID (n = 15)): 13.3%
- PFS (months) ([4]; ID (n = 15)): 5.4 months
- ORR (%) ([4]; IS (n = 15)): 66.7%
- PFS (months) ([4]; IS (n = 15)): 13.1 months
- ORR (%) ([5]; A (n = 10)): 54%
- OS (months) ([5]; A (n = 10)): 19.0 months
- PFS (months) ([5]; A (n = 10)): 13.5 months
- ORR (%) ([5]; Biomarker Negative (n = 20)): 34%
- OS (months) ([5]; Biomarker Negative (n = 20)): 11.9 months
- PFS (months) ([5]; Biomarker Negative (n = 20)): 9.8 months
- ORR (%) ([5]; Biomarker Positive (n = 20), BRCA WT): 56%
- OS (months) ([5]; Biomarker Positive (n = 20)): 20.1 months
- PFS (months) ([5]; Biomarker Positive (n = 20)): 14.2 months
- ORR (%) ([5]; IA (n = 10)): 37%
- OS (months) ([5]; IA (n = 10)): 12.0 months
- PFS (months) ([5]; IA (n = 10)): 10.9 months
- ORR (%) ([5]; ID (n = 10)): 31%
- OS (months) ([5]; ID (n = 10)): 11.8 months
- PFS (months) ([5]; ID (n = 10)): 8.7 months
- ORR (%) ([5]; IS (n = 10)): 58%
- OS (months) ([5]; IS (n = 10)): 21.2 months
- PFS (months) ([5]; IS (n = 10)): 14.7 months
